Reference: patent publication US12564623B2, “Methods and compositions for treating cancer” (The University of Chicago, priority 2017, dated 2026)
Ends that are not written are not given here.

How the values were obtained:
ELANE [1] = details: specific ELANE inhibitors; cited from earlier work
MDA-MB-231 cells [2] = assay: ELANE inactivation by PMSF or A1AT and killing assay; type: cell-based, human; details: irreversible non-competitive ELANE inhibitors
Description: (FIG. 5A) Purified native ELANE or PMN media was treated with PMSF (100 nM) or alpha-1-anti-trypsin (A1AT; 42 nM) for 30 mins and loss of ELANE catalytic activity was confirmed by a chromogenic substrate assay. Killing assays were performed by treating MDA-MB-231 cells for 24 hrs treatment and assessed by Calcein AM staining. (FIG. 5B) ELANE activity in PMN media was measured by a chromogenic substrate activity assay, and PMN killing was measured by Calcein AM staining on MDA-MB-231 cells exposed to PMN media for 4h.

[3] = test system: E0771, B16F10, or LLC1 cancer cells; assay: Tumor growth after intratumoral delivery, syngeneic models; type: in vivo, C57BL/6 mice; details: 11.6 μg intratumorally once/day for 5 days
Description: ELANE activity is required for its anti-tumor function in vivo. (FIG. 14A) Catalytic activity of ELANE or ELANE that had been inactivated by treatment with 100 nM PMSF (PMSF-ELANE) was determined by a chromogenic substrate. (FIG. 14B) E0771, B16F10, or LLC1 cancer cells were injected into C57BL/6 mice. Once tumors reached ˜100 mm^3, human serum albumin (HSA, 11.6 μg), ELANE (11.6 μg), or PMSF-ELANE (11.6 μg) were delivered intratumorally once/day for 5 days. Tumor volume was assessed by calipers.

ELANE [4] = biological target: T1, ELANE (Homo sapiens, UniProt P08246); assay: ELANE catalytic activity with increasing ECP, chromogenic substrate activity assay; type: biochemical; details: ECP as type 2 allosteric activator
T1 construct: incubated the neutrophil conditioned media with magnetic beads coupled to an anti-ELANE antibody; endogenous in cells; host or cells: human peripheral blood neutrophils from healthy donors (conditioned media)
T1 sequence (P08246 30-267): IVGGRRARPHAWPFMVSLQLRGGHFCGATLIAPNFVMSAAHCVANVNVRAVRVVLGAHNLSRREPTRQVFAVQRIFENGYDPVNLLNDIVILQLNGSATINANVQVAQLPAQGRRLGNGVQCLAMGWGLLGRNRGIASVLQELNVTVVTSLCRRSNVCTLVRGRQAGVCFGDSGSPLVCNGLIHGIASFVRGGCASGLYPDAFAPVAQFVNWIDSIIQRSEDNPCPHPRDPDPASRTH
Description: (§1) FIG. 7A-D. ECP is a type II allosteric activator of ELANE catalytic activity. (a) 10 nM ELANE was incubated with increasing ECP concentrations at various substrate concentrations. Catalytic activity was measured by a chromogenic substrate activity assay. (b) Km (app) and Vmax (app) values were obtained by fitting curves to Michaelis-Menten equations (lines). (c) Km (app) versus ECP concentration. (d) Vmax (app) versus ECP concentration. ELANE was immunoprecipitated from human PMN media and samples were probed with anti-ELANE and anti-ECP antibodies. Orig=PMN media, Sup=flow-though, Wash=bead wash, Elute=bound to anti-ELANE antibody.
as §1, with “ECP” for “FIG. 7A-D. ECP”, “(FIG. 7A)” for “(a)”, “(FIG. 7B)” for “(b)”, “(FIG. 7C)” for “(c)”, “(FIG. 7D)” for “(d)”

[5] = test system: human monocyte-derived macrophages (HMDMs); type: cell-based
Description: Human peripheral blood neutrophils were isolated from healthy donors. Cells were plated in serum-free DMEM and the neutrophil conditioned media (Neu CM) was collected for 24h. […] High doses of ECP or ELANE can kill cancer cells. The inventors sought to determine whether adding purified human ECP (Lee Biosolutions), human ELANE (Abcam), human DEFA1 (Abcam), human ANXA6 (R&D Systems) or human CASP3 (Abcam) individually could kill cancer cells without killing non-cancer cells. Increasing doses of each protein were added to MDA-MB-231 cells for 5h or human monocyte-derived macrophages (HMDMs) for 24 h and cell viability was determined by Calcein-AM. […] ELANE and ECP synergize to selectively kill cancer cells. MDA-MB-231 and human monocyte-derived macrophages (HMDMs) were treated with levels of ELANE (0.25 μg/mL) or ECP (0.05 μg/mL) that were present in the PMN media, alone or in combination for 24 hrs. killing was examined by Calcein AM staining.

ELANE [6] = biological target: T1, ELANE; assay: Anti-ELANE magnetic bead pull-down from neutrophil conditioned media, western blotting; type: binding; details: anti-ELANE antibody beads
From the text: Identification of ECP, ELANE, ANXA6, DEFA1, and CASP3 as candidate cancer cell killing proteins in the neutrophil conditioned media. Neutrophil conditioned media was obtained from 2 different donors (Donor 1 and Donor 2). […] To determine the identity of the proteins depleted by the 0.2 μm sterile filter, the inventors performed quantitative proteomics analysis on the conditioned media from each donor pre- and post-filter. Proteomics analysis identified 2000 proteins, 4 of which (ECP, ELANE, ANXA6, and DEFA1) were depleted in samples from both donors (G-test, p<0.05). The inventors explored the possibility that these proteins might interact with or complement one another. This hypothesis was tested using two approaches. First, the inventors incubated the neutrophil conditioned media with magnetic beads coupled to an anti-ELANE antibody and analyzed the supernatant (sup), wash, and eluent (elute) by western blotting.

MDA-MB-231 cells [7] = assay: Cancer cell killing, Calcein AM staining; type: cell-based, human; details: increasing doses, 5h
Description: Approach to identify the factor(s) mediating selective killing. A quantitative cancer cell killing assay was developed to track the bioactive factor(s). MDA-MB-231 cells were treated with various doses of PMN media and cell viability was assessed by Calcein AM live cells fluorescence staining. […] (FIG. 3B) PMN media was passed through a 0.22 μm filter, and protein concentration and killing activity on MDA-MB-231 cancer cells was measured in both pre- and post-filter solutions. […] ELANE and ECP levels in PMN media pre- and post-filtration were quantified by mass spectrometry (spectral counts).
To determine if ELANE and/or ECP were responsible, the inventors (1) immuno-depleted ELANE or ECP from PMN media; (2) treated cancer or normal cells with purified native ELANE or ECP from commercial sources. (FIG. 6A) ELANE or ECP were depleted from PMN media by immunoprecipitation; depletion was confirmed by western blotting. PMN media pre-depletion=Orig. and post-depletion=FT. Non-specific IgG was used as a control. (FIG. 6B) MDA-MB-231 cells or human monocyte-derived macrophages (HMDMs) were treated with purified native ELANE or ECP at various doses for 24h, and killing was assessed by Calcein AM staining. (FIG. 6C) MDA-MB-231 cells and HMDMs were treated with levels of ELANE (0.25 μg/mL) or ECP (0.05 μg/mL) that were present in the PMN media, alone or in combination for 24 hrs, and killing was examined by Calcein AM staining.
High doses of ECP or ELANE can kill cancer cells. The inventors sought to determine whether adding purified human ECP (Lee Biosolutions), human ELANE (Abcam), human DEFA1 (Abcam), human ANXA6 (R&D Systems) or human CASP3 (Abcam) individually could kill cancer cells without killing non-cancer cells. Increasing doses of each protein were added to MDA-MB-231 cells for 5h or human monocyte-derived macrophages (HMDMs) for 24 h and cell viability was determined by Calcein-AM.
ELANE and ECP synergize to selectively kill cancer cells. MDA-MB-231 and human monocyte-derived macrophages (HMDMs) were treated with levels of ELANE (0.25 μg/mL) or ECP (0.05 μg/mL) that were present in the PMN media, alone or in combination for 24 hrs. killing was examined by Calcein AM staining.
Combining chemotherapeutics and neutrophil conditioned media enhances the killing of human triple negative breast cancer cells. MDA-MB-231 cells were treated with neutrophil conditioned media (Neu-CM; 4 μg/mL), doxorubicin (DOX; 0.3 μM), or paclitaxel (PTX; 3 nM) for 4h, individually or in combination, and cell viability was assessed by Calcein-AM.
Other serine proteases cleave the C-terminal domain of CD95, and the ability to cleave the C-terminal domain is associated with cancer cell killing. (FIG. 12A) Full length recombinanat CD95 protein was incubated with various serine proteases (human ELANE (80 nM), PR3 (80 nM), CSTG (80 nM), PPE (80 nM), mouse ELANE (80 nM), rat ELANE (500 nM), GZMB (80 nM), or Trypsin (250 nM)), or other types of proteases (CTSC (80 nM); or MMP7 (80 nM), MMP9 (80 nM), CTSD (80 nM) not shown) at 37° C. for 2 hours. Degradation was assessed by SDS-PAGE followed by coomassie blue staining. (FIG. 12B) MDA-MB-231 cancer cells were incubated with various proteases for 24 hrs. Cell viability was assessed by Calcein AM staining.
(FIG. 13A) MDA-MB-231 cancer cells were treated with various doses of purified native ELANE or purified native porcine pancreatic elastase (PPE) for 6 h, and killing was assessed by Calcein AM staining. (FIG. 13B). Purified native ELANE or purified native PPE was incubated with different concentrations of alpha-1-anti-trypsin (A1AT) for 15 mins. Catalytic activity was measured using a chromogenic substrate assay. Cancer cell killing capability was determined by treating MDA-MB-231 cancer cells with ELANE or PPE in the presence or absence of A1AT for 6h, followed by Calcein AM staining. (FIG. 13C) Catalytic activity was measured using a chromogenic substrate assay. […]

For `CC(C)(C)C(=O)Oc1ccc(S(=O)(=O)Nc2ccccc2C(=O)NCC(=O)O)cc1` [sivelestat], the “growth of transplanted cancer cells” value (ELANE [1]) is listed as “suppress growth of cancer cells transplanted into severe combined immunodeficiency mice”.

In the case of `O=S(=O)(F)Cc1ccccc1` [PMSF], the “effect on cancer cell apoptosis of treating ELANE or neutrophil conditioned media with inhibitor” value (MDA-MB-231 cells [2]) is reported as “protects cancer cells from apoptosis”.

In the case of alpha-1-antitrypsin, the “effect on cancer cell apoptosis of treating ELANE or neutrophil conditioned media with inhibitor” value (MDA-MB-231 cells [2]) is reported as “protects cancer cells from apoptosis”.

For “elafin (AQEPVKGPVSTKPGSCPIILIRCAMLNPPNRCLKDTDCPGIKKCCEGSCGMACFVPQ; ends and bridges not checked; cysteine pairing not given here; UniProt P19957 61-117, looked up)”, the “growth of transplanted cancer cells” value (ELANE [1]) is listed as “suppress growth of cancer cells transplanted into severe combined immunodeficiency mice”.

B1: PMSF-ELANE: ELANE that had been inactivated by treatment with PMSF (protein, UniProt P08246 30-267, looked up)
Neutrophil elastase: T1 sequence (P08246 30-267)
modifications: PMSF-inactivated
In the case of B1, the tumor growth [3] is reported as “no effect on tumor growth”.

B2: eosinophil cationic protein (protein, listed as Homo sapiens)
chain: MVPKLFTSQICLLLLLGLMGVEGSLHARPPQFTRAQWFAIQHISLNPPRCTIAMRAINNYRWRCKNQNTFLRTTFANVVNVCGNQSIRCPHNRTLNNCHRSRFRVPLLHCDLINPGAQNISNCTYADRPGRRFYVVACDNRDPRDSPRYPVVPVHLDTTI
In the case of B2, the “effect on KM of ELANE” value (ELANE [4]) is reported as “without altering KM”, the “increase of kcat of ELANE for its substrate” value (ELANE [4]) is reported as 12 fold and the “toxicity to human monocyte-derived macrophages” value [5] is reported as “showed toxicity”. The “binding to ELANE” value (ELANE [6]) was “ELANE-binding proteins” and the “cancer cell killing activity of purified protein” value (MDA-MB-231 cells [7]) was “highest cancer cell killing activity”.
